# Values joined by “and” are separate entries in the source; they are usually repeats but may differ in a detail not shown here. Equal entries are not always repeated.
# Conditions: Saccharomyces cerevisiae (strain ATCC 204508 / S288c), 25 °C, GdnHCl, reversible: yes, whole UniProt chain shown
# [1] = pH 7, Fluorescence, Tris-HCl 50 mM, NaCl 0.2 M, transition: 2
# [2] = pH 7.5, Fluorescence, Tris-HCl 50 mM, NaCl 0.2 M, transition: 2
# [3] = pH 7.5, Fluorescence, Tris-phosphate 50 mM, NaCl 0.2 M, transition: 2
# [4] = pH 8, CD, Na2HPO4-KH2PO4 50 mM, NaCl 0.15 M, transition: 3
# [5] = pH 8, Fluorescence, Na2HPO4-KH2PO4 50 mM, NaCl 0.15 M, transition: 2
# [6] = pH 8, Fluorescence, Tris-HCl 50 mM, NaCl 0.2 M, transition: 2
# [7] = pH 8, Fluorescence, Tris-HCl 50 mM, NaCl 0.2 M, transition: 3
# [8] = pH 8.4, Fluorescence, Tris-HCl 50 mM, NaCl 0.2 M, transition: 2
# [9] = pH 8.5, Fluorescence, Na2HPO4-KH2PO4 50 mM, NaCl 0.15 M, transition: 2
protein,measurement,setting,value
"Transcriptional regulator URE2 wild type, P23202 (protein) MMNNNGNQVSNLSNALRQVNIGNRNSNTTTDQSNINFEFSTGVNNNNNNNSSSNNNNVQNNNSGRNGSQNNDNENNIKNTLEQHRQQQQAFSDMSHVEYSRITKFFQEQPLEGYTLFSHRSAPNGFKVAIVLSELGFHYNTIFLDFNLGEHRAPEFVSVNPNARVPALIDHGMDNLSIWESGAILLHLVNKYYKETGNPLLWSDDLADQSQINAWLFFQTSGHAPMIGQALHFRYFHSQKIASAVERYTDEVRRVYGVVEMALAERREALVMELDTENAAAYSAGTTPMSQSRFFDYPVWLVGDKLTIADLAFVPWNNVVDRIGINIKIEFPEVYKWTKHMMRRPAVIKALRGE",denaturant m value,[1],3.2 kcal/mol/M
same,denaturant midpoint (higher = more stable),[1],2.4 M
same,unfolding free energy,[1],17 kcal/mol
same,unfolding free energy,"pH 7, Fluorescence, Tris-HCl 50 mM, NaCl 0.2 M, transition: 3",7.9 kcal/mol
same,denaturant m value,[2],3.6 kcal/mol/M
same,denaturant midpoint (higher = more stable),[2],2.64 M
same,unfolding free energy,[2],20 kcal/mol
same,unfolding free energy,"pH 7.5, Fluorescence, Tris-HCl 50 mM, NaCl 0.2 M, transition: 3",8.8 kcal/mol and 8.5 kcal/mol and 8.9 kcal/mol
same,denaturant m value,[3],4.8 kcal/mol/M and 5.2 kcal/mol/M
same,denaturant midpoint (higher = more stable),[3],2.66 M and 2.53 M
same,unfolding free energy,[3],21 kcal/mol and 22 kcal/mol
same,unfolding free energy,"pH 7.5, Fluorescence, Tris-phosphate 50 mM, NaCl 0.2 M, transition: 3",9 kcal/mol
same,denaturant midpoint (higher = more stable),[4],2.33 M and 3.54 M
same,unfolding free energy,[4],7 kcal/mol
same,denaturant m value,[5],4 kcal/mol/M
same,denaturant midpoint (higher = more stable),[5],2.48 M
same,unfolding free energy,[5],19 kcal/mol
same,unfolding free energy,"pH 8, Fluorescence, Na2HPO4-KH2PO4 50 mM, NaCl 0.15 M, transition: 3",6.9 kcal/mol and 6.8 kcal/mol
same,denaturant m value,[6],3 kcal/mol/M and 4.1 kcal/mol/M and 6 kcal/mol/M
same,denaturant midpoint (higher = more stable),[6],3 M and 2.84 M and 2.66 M
same,unfolding free energy,[6],16 kcal/mol and 19 kcal/mol
same,denaturant m value,[7],8 kcal/mol/M and 3 kcal/mol/M
same,denaturant midpoint (higher = more stable),[7],3.23 M and 2.67 M
same,unfolding free energy,[7],8 kcal/mol
same,denaturant m value,[8],5 kcal/mol/M and 5.5 kcal/mol/M and 6.8 kcal/mol/M
same,denaturant midpoint (higher = more stable),[8],3.06 M and 2.95 M and 2.93 M
same,unfolding free energy,[8],23 kcal/mol and 24 kcal/mol
same,denaturant m value,[9],5 kcal/mol/M
same,denaturant midpoint (higher = more stable),[9],2.57 M
same,unfolding free energy,[9],22 kcal/mol
same,unfolding free energy,"pH 8.5, Fluorescence, Na2HPO4-KH2PO4 50 mM, NaCl 0.15 M, transition: 3",7.6 kcal/mol and 7.4 kcal/mol and 7.5 kcal/mol

# Source: FireProtDB (doi:10.1016/s0022-2836(03)00249-3)
